B1: ZNF19 (protein, UniProt P17023 1-458, looked up)
Zinc finger protein 19: MAAMPLKAQYQEMVTFEDVAVHFTKTEWTGLSPAQRALYRSVMLENFGNLTALGYPVPKPALISLLERGDMAWGLEAQDDPPAERTKNVCKDVETNIDSESTLIQGISEERDGMMSHGQLKSVPQRTDFPETRNVEKHQDIPTVKNIQGKVPRIPCARKPFICEECGKSFSYFSYYARHQRIHTGEKPFECSECGKAFNGNSSLIRHQRIHTGERPYQCEECGRAFNDNANLIRHQRIHSGDRPYYCTECGNSFTSSSEFVIHQRIHTGEKPYECNECGKAFVGNSPLLRHQKIHTGEKPYECNECGKSFGRTSHLSQHQRIHTGEKPYSCKVCGQAFNFHTKLTRHQRIHSEEKPFDCVDCGKAFSAQEQLKRHLRIHTQESSYVCDECGKALTSKRNLHQHQRIHTGEKPYECSKYEKAFGTSSQLGHLEHVYSGEKPVLDICRFGLPEFFTPFYW
B2: CARHSP1 (protein, UniProt Q9Y2V2 2-147, looked up)
Calcium-regulated heat-stable …: SSEPPPPPQPPTHQASVGLLDTPRSRERSPSPLRGNVVPSPLPTRRTRTFSATVRASQGPVYKGVCKCFCRSKGHGFITPADGGPDIFLHISDVEGEYVPVEGDEVTYKMCSIPPKNEKLQAVEVVITHLAPGTKHETWSGHVISS
B3: ZNF174 (protein, UniProt Q15697 1-407, looked up)
Zinc finger protein 174: MAAKMEITLSSNTEASSKQERHIIAKLEEKRGPPLQKNCPDPELCRQSFRRFCYQEVSGPQEALSQLRQLCRQWLQPELHTKEQILELLVMEQFLTILPPEIQARVRHRCPMSSKEIVTLVEDFHRASKKPKQWVAVCMQGQKVLLEKTGSQLGEQELPDFQPQTPRRDLRESSPAEPSQAGAYDRLSPHHWEKSPLLQEPTPKLAGTEAPRMRSDNKENPQQEGAKGAKPCAVSAGRSKGNGLQNPEPRGANMSEPRLSRRQVSSPNAQKPFAHYQRHCRVEYISSPLKSHPLRELKKSKGGKRSLSNRLQHLGHQPTRSAKKPYKCDDCGKSFTWNSELKRHKRVHTGERPYTCGECGNCFGRQSTLKLHQRIHTGEKPYQCGQCGKSFRQSSNLHQHHRLHHGD
B4: ZGLP1 (protein, UniProt P0C6A0 1-273, looked up)
GATA-type zinc finger protein …: MEAEPIPDSSMPAKLLAPPCLNLERLGGSPSQEKPRTPGCCRISERSLWPACQESVTALCFLQETVERLGQSPAQDTPVLGPCWDPMALGTQGRLLLDRDSKDTQTRISQKGRRLQPPGTPSAPPQRRPRKQLNPCRGTERVDPGFEGVTLKFQIKPDSSLQIIPTYSLPCSSRSQESPADAVGGPAAHPGGTEAHSAGSEALEPRRCASCRTQRTPLWRDAEDGTPLCNACGIRYKKYGTRCSSCWLVPRKNVQPKRLCGRCGVSLDPIQEG
B5: ZNF213 (protein, UniProt O14771 1-459, looked up)
Zinc finger protein 213: MAAPLEAQDQAPGEGEGLLIVKVEDSSWEQESAQHEDGRDSEACRQRFRQFCYGDVHGPHEAFSQLWELCCRWLRPELRTKEQILELLVLEQFLTVLPGEIQGWVREQHPGSGEEAVALVEDLQKQPVKAWRQDVPSEEAEPEAAGRGSQATGPPPTVGARRRPSVPQEQHSHSAQPPALLKEGRPGETTDTCFVSGVHGPVALGDIPFYFSREEWGTLDPAQRDLFWDIKRENSRNTTLGFGLKGQSEKSLLQEMVPVVPGQTGSDVTVSWSPEEAEAWESENRPRAALGPVVGARRGRPPTRRRQFRDLAAEKPHSCGQCGKRFRWGSDLARHQRTHTGEKPHKCPECDKSFRSSSDLVRHQGVHTGEKPFSCSECGKSFSRSAYLADHQRIHTGEKPFGCSDCGKSFSLRSYLLDHRRVHTGERPFGCGECDKSFKQRAHLIAHQSLHAKMAQPVG
B6: ZNF165 (protein, UniProt P49910 1-485, looked up)
Zinc finger protein 165: MATEPKKAAAQNSPEDEGLLIVKIEEEEFIHGQDTCLQRSELLKQELCRQLFRQFCYQDSPGPREALSRLRELCCQWLKPEIHTKEQILELLVLEQFLTILPGDLQAWVHEHYPESGEEAVTILEDLERGTDEAVLQVQAHEHGQEIFQKKVSPPGPALNVKLQPVETKAHFDSSEPQLLWDCDNESENSRSMPKLEIFEKIESQRIISGRISGYISEASGESQDICKSAGRVKRQWEKESGESQRLSSAQDEGFGKILTHKNTVRGEIISHDGCERRLNLNSNEFTHQKSCKHGTCDQSFKWNSDFINHQIIYAGEKNHQYGKSFKSPKLAKHAAVFSGDKTHQCNECGKAFRHSSKLARHQRIHTGERCYECNECGKSFAESSDLTRHRRIHTGERPFGCKECGRAFNLNSHLIRHQRIHTREKPYECSECGKTFRVSSHLIRHFRIHTGEKPYECSECGRAFSQSSNLSQHQRIHMRENLLM
B7: ZKSCAN3 (protein, UniProt Q9BRR0 1-538, looked up)
Zinc finger protein with KRAB …: MARELSESTALDAQSTEDQMELLVIKVEEEEAGFPSSPDLGSEGSRERFRGFRYPEAAGPREALSRLRELCRQWLQPEMHSKEQILELLVLEQFLTILPGNLQSWVREQHPESGEEVVVLLEYLERQLDEPAPQVSGVDQGQELLCCKMALLTPAPGSQSSQFQLMKALLKHESVGSQPLQDRVLQVPVLAHGGCCREDKVVASRLTPESQGLLKVEDVALTLTPEWTQQDSSQGNLCRDEKQENHGSLVSLGDEKQTKSRDLPPAEELPEKEHGKISCHLREDIAQIPTCAEAGEQEGRLQRKQKNATGGRRHICHECGKSFAQSSGLSKHRRIHTGEKPYECEECGKAFIGSSALVIHQRVHTGEKPYECEECGKAFSHSSDLIKHQRTHTGEKPYECDDCGKTFSQSCSLLEHHRIHTGEKPYQCSMCGKAFRRSSHLLRHQRIHTGDKNVQEPEQGEAWKSRMESQLENVETPMSYKCNECERSFTQNTGLIEHQKIHTGEKPYQCNACGKGFTRISYLVQHQRSHVGKNILSQ
B8: ZIC3 (protein, UniProt O60481 1-467, looked up)
Zinc finger protein ZIC 3: MTMLLDGGPQFPGLGVGSFGAPRHHEMPNREPAGMGLNPFGDSTHAAAAAAAAAAFKLSPAAAHDLSSGQSSAFTPQGSGYANALGHHHHHHHHHHHTSQVPSYGGAASAAFNSTREFLFRQRSSGLSEAASGGGQHGLFAGSASSLHAPAGIPEPPSYLLFPGLHEQGAGHPSPTGHVDNNQVHLGLRGELFGRADPYRPVASPRTDPYAAGAQFPNYSPMNMNMGVNVAAHHGPGAFFRYMRQPIKQELSCKWIDEAQLSRPKKSCDRTFSTMHELVTHVTMEHVGGPEQNNHVCYWEECPREGKSFKAKYKLVNHIRVHTGEKPFPCPFPGCGKIFARSENLKIHKRTHTGEKPFKCEFEGCDRRFANSSDRKKHMHVHTSDKPYICKVCDKSYTHPSSLRKHMKVHESQGSDSSPAASSGYESSTPPAIASANSKDTTKTPSAVQTSTSHNPGLPPNFNEWYV
B9: CARF (protein, UniProt Q9NXV6 2-580, looked up)
CDKN2A-interacting protein: AQEVSEYLSQNPRVAAWVEALRCDGETDKHWRHRRDFLLRNAGDLAPAGGAASASTDEAADAESGTRNRQLQQLISFSMAWANHVFLGCRYPQKVMDKILSMAEGIKVTDAPTYTTRDELVAKVKKRGISSSNEGVEEPSKKRVIEGKNSSAVEQDHAKTSAKTERASAQQENSSTCIGSAIKSESGNSARSSGISSQNSSTSDGDRSVSSQSSSSVSSQVTTAGSGKASEAEAPDKHGSASFVSLLKSSVNSHMTQSTDSRQQSGSPKKSALEGSSASASQSSSEIEVPLLGSSGSSEVELPLLSSKPSSETASSGLTSKTSSEASVSSSVAKNSSSSGTSLLTPKSSSSTNTSLLTSKSTSQVAASLLASKSSSQTSGSLVSKSTSLASVSQLASKSSSQTSTSQLPSKSTSQSSESSVKFSCKLTNEDVKQKQPFFNRLYKTVAWKLVAVGGFSPNVNHGELLNAAIEALKATLDVFFVPLKELADLPQNKSSQESIVCELRCKSVYLGTGCGKSKENAKAVASREALKLFLKKKVVVKICKRKYRGSEIEDLVLLDEESRPVNLPPALKHPQELL

The molecules below were run on HEK293FT cells transfected with TF library (assay: Screening of TF condensates based on fluorescent puncta). Conditions: Figure 1B numerical data; TF library screen, one value per transcriptional factor.
Format: cell-based
How it was run: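 TF plasmids (final 1.6 μg/ml) reverse-transfected with PEI (4.8 μg/ml) into HEK293FT cells; after 60 h, cells cultured ±glucose for 12 h, fixed in 4% PFA and immunostained for Flag or GAL4 tags with Alexa 488 secondaries. Puncta scored by automated imaging of 50 random fields per well.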

Molecule | Z score of condensed fraction
B1 | -0.9415
B2 | 2.822
B3 | -0.9036
B4 | -0.7375
B5 | -0.4697
B6 | 0.7106
B7 | 0.9842
B8 | -0.3091
B9 | 2.409
